Reference: US7144731B2, “SCF antibody compositions and methods of using the same” (Amgen Inc., priority 1989, dated 2006)

Columns and labels:
mouse bone marrow cells = experiment: Pre-B cell colony formation in agar cultures; type: cell-based
From the text: The ability of recombinant rat SCF^1-164 (rrSCF^1-164), to act synergistically with IL-7 to enhance lymphoid cell proliferation was studied in agar cultures of mouse bone marrow. In this assay, the colonies formed with rrSCF^1-164 alone contained monocytes, neutrophils, and blast-cells, while the colonies stimulated by IL-7 alone or in combination with rrSCF^1-164 contained primarily pre-B cells. Pre-B cells, characterized as B220^+, sIg^−, cμ^+, were identified by FACS analysis of pooled cells using fluorescence-labeled antibodies to the B220 antigen [Coffman, Immunol. Rev., 69, 5 (1982)] and to surface Ig (FITC-goat anti-K, Southern Biotechnology Assoc., Birmingham, Ala.); and by analysis of cytospin slides for cytoplasmic μ expression using fluorescence-labeled antibodies (TRITC-goat anti-μ, Southern Biotechnology Assoc.,). Recombinant human IL-7 (rhIL-7) was obtained from Biosource International (Westlake Village, Calif.). When rrSCF^1-164 was added in combination with the pre-B cell growth factor IL-7, a synergistic increase in colony formation was observed (Table 16), indicating a stimulatory role of rrSCF^1-164 on early B cell progenitors.

[1] = system: Steel-Dickie (S1/S1^d) mice; experiment: In vivo activity in Steel-Dickie mice; design: species or system mouse; conditions: 100 μg/kg/day 30 days then 30 μg/kg/day 20 days, s.c.
Description: Steel mice provide a sensitive in vivo model for SCF activity. Different recombinant SCF proteins were tested in Steel-Dickie (S1/S1^d) mice for varying lengths of time. Six to ten week old Steel mice (WCB6F1-S1/S1^d) were purchased from Jackson Labs, Bar Harbor, Me. Peripheral blood was monitored by a SYSMEX F-800 microcell counter (Baxter, Irvine, Calif.) for red cells, hemoglobin, and platelets. For enumeration of peripheral white blood cell (WBC) numbers, a Coulter Channelyzer 256 (Coulter Electronics, Marietta, Ga.) was used.
In the experiment in FIG. 24, Steel-Dickie mice were treated with E. coli derived SCF^1-164, purified as in Example 10, at a dose of 100 μg/kg/day for 30 days, then at a dose of 30 μg/kg/day for an additional 20 days. The protein was formulated in injectable saline (Abbott Labs, North Chicago, Ill.) +0.1% fetal bovine serum. The injections were performed daily, subcutaneously. The peripheral blood was monitored via tail bleeds of ˜50 μl at the indicated times in FIG. 24. The blood was collected into 3% EDTA coated syringes and dispensed into powdered EDTA microfuge tubes (Brinkmann, Westbury, N.Y.). […]
Whole blood was stained for T lymphocyte subsets as follows. […] Each sample of blood was then analyzed on a FACScan cell analysis system (Becton Dickinson, Mountain View, Calif.). […]

B1: rrSCF^1-164: recombinant rat SCF^1-164 from E. coli, also used ^125I-labelled (protein)
chain: QEICRNPVTDNVKDITKLVANLPNDYMITLNYVAGMDVLPSHCWLRDMVTHLSVSLTTLLDKFSNISEGLSNYSIIDKLGKIVDDLVACMEENAPKNVKESLKKPETRNFTPEEFFSIFNRSIDAFKDFMVASDTSDCVLSSTLGPEKDSRVSVTKPFMLPPVA
Colony Number per 5 × 10^4 mouse bone marrow cells plated (mouse bone marrow cells; 50 ng): 4 ± 2
Colony Number per 5 × 10^4 mouse bone marrow cells plated (mouse bone marrow cells; 100 ng): 7 ± 4
Colony Number per 5 × 10^4 mouse bone marrow cells plated (mouse bone marrow cells; 200 ng, mean of triplicate dishes ± SD): 13 ± 2
macrocytic anemia (hematocrit, mean red cell volume) [1]: significant correction of the macrocytic anemia
